Where a chain is given by its changes, count along the chain named. Numbers in names are those of the source.
Legend:
[1] = NRF2 level in xenografts, IHC and WB; details: glycan lost; control: NCI-H1299 NRF2-WT xenografts
[2] = H2O2-induced ARE luciferase activity; details: glycan lost; control: NCI-H1299 NRF2-WT cells + H2O2
[3] = RT-PCR of NRF2 target genes in xenografts; details: glycan lost; control: NCI-H1299 NRF2-WT xenografts
[4] = xenograft growth under cisplatin 1.5 or 3.0 mg/kg; details: glycan lost; control: NCI-H1299 NRF2-WT xenografts + cisplatin
[5] = CHX chase, Flag-NRF2 remaining; NCI-H1299, HEK293T; details: glycan lost; control: Flag-NRF2WT
[6] = H2O2-induced nuclear translocation, fractionation; details: glycan lost; control: NCI-H1299 NRF2-WT cells + H2O2
[7] = endogenous NRF2 stability by WB, knock-in cells; details: glycan lost; control: NCI-H1299 NRF2-WT cells
cisplatin IC50 in cells = details: glycan lost; control: NCI-H1299 NRF2-WT cells
[8] = WB of NRF2 after OGT KD or overexpression; details: glycan lost; control: control NCI-H1299 cells
GST-OGT^WT = target: T1, GST-OGT^WT (UniProt O15294-3 1-1036); assay: pull-down; in vitro GST pull-down; GST-OGT^WT or GST-OGT^T444E with His-NRF2; details: both partners purified
T1 construct: OGT, wild type; The printed Thr444 fits the 1036-residue isoform
T1 sequence (looked up): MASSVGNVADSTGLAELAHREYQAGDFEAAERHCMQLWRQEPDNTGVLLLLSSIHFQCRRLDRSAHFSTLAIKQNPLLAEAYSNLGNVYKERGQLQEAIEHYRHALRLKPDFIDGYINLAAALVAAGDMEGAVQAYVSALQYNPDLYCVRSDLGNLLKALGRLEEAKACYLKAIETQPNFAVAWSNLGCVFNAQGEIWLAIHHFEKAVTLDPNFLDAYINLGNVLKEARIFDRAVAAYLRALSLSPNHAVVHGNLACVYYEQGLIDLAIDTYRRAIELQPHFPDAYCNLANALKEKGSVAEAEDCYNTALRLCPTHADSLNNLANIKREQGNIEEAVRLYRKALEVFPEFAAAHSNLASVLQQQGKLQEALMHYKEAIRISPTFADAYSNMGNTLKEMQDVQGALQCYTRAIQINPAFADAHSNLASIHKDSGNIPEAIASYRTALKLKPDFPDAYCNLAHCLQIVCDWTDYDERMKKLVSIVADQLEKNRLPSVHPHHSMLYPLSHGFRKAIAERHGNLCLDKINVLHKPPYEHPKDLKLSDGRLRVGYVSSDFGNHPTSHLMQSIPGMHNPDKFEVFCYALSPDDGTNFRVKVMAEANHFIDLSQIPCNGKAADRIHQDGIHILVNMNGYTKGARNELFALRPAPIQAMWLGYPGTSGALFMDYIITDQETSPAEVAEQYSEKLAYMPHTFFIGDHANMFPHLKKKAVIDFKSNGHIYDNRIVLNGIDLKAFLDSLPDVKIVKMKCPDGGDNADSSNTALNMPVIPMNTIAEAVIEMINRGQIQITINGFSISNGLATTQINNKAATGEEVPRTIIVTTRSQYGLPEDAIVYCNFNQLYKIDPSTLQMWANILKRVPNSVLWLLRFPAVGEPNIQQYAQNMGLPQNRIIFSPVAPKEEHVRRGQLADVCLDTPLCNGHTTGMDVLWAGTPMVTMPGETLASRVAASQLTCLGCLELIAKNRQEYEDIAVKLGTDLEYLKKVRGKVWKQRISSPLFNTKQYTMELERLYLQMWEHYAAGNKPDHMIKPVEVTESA

GST-OGT^T444E = target: T2, GST-OGT^T444E (UniProt O15294-3 1-1036, T444E); assay: as above; details: both partners purified
T2 construct: OGT with T444E (mimics phosphorylation at Thr444); The printed Thr444 fits the 1036-residue isoform
T2 sequence (looked up): T1 sequence (looked up) with T444E

B1: NRF2: S103A (protein)
parent chain: MMDLELPPPGLPSQQDMDLIDILWRQDIDLGVSREVFDFSQRRKEYELEKQKKLEKERQEQLQKEQEKAFFAQLQLDEETGEFLPIQPAQHIQSETSGSANYSQVAHIPKSDALYFDDCMQLLAQTFPFVDDNEVSSATFQSLVPDIPGHIESPVFIATNQAQSPETSVAQVAPVDLDGMQQDIEQVWEELLSIPELQCLNIENDKLVETTMVPSPEAKLTEVDNYHFYSSIPSMEKEVGNCSPHFLNAFEDSFSSILSTEDPNQLTVNSLNSDATVNTDFGDEFYSAFIAEPSISNSMPSPATLSHSLSELLNGPIDVSDLSLCKAFNQNHPESTAEFNDSDSGISLNTSPSVASPEHSVESSSYGDTLLGLSDSEVEELDSAPGSVKQNGPKTPVHSSGDMVQPLSPSQGQSTHVHDAQCENTPEKELPVSPGHRKTPFTKDKHSSRLEAHLTRDELRAKALHIPFPVEKIINLPVVDFNEMMSKEQFNEAQLALIRDIRRRGKNKVAAQNCRKRKLENIVELEQDLDHLKDEKEKLLKEKGENDKSLHLLKKQLSTLYLEVFSMLRDEDGKPYSPSEYSLQQTRDGNVFLVPKSKKPDVKKN
[1]
  expression_or_secretion: decreases
[2]
  other: transcriptional activity: decreases
[3]
  other: transcriptional activity: decreases
[4]
  other: cisplatin resistance: decreases
[5]
  degradation_or_half_life: decreases
[6]
  localisation_or_trafficking: decreases
[7]
  degradation_or_half_life: decreases
Cisplatin IC50 in cells
  other: cisplatin resistance, IC50: decreases, 19.53 vs 31.83

B2: NRF2: OGT knockdown (protein)
parent chain: B1 parent chain
[8]
  expression_or_secretion: decreases

B3: NRF2: S310A (protein)
parent chain: B1 parent chain
[5]
  degradation_or_half_life: no change

B4: NRF2: T350A (protein)
parent chain: B1 parent chain
[5]
  degradation_or_half_life: no change

B5: NRF2: S111A (protein)
parent chain: B1 parent chain
[5]
  degradation_or_half_life: no change

B6: His-NRF2 (natural protein, UniProt Q16236 1-605, looked up)
chain: B1 parent chain
notes: NRF2; Construct details are said to be in the Supplementary Information
GST-OGT^WT
  binding result: binds
GST-OGT^T444E
  binding result: binds
